According to paper PMC11976344:
Ends that are not written are not given here.

What was measured:
CCL8 [1] = target: CCL8 (UniProt P80075)
CCL8 [2] = target: CCL8 (UniProt P80075); remark: listed apart in the source

Sequence of UniProt P80075 (P80075 24-99): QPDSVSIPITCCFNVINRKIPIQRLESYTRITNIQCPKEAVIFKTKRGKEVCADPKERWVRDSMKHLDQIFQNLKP

Molecule	IC50 of inhibition of CCL8-induced THP1 cell migration (CCL8 [1]) [nM]	IC50 of inhibition of CCL8-driven THP-1 cell migration (dose-response peptide titration) (CCL8 [2]) [nM]
Evasin P672 (natural protein)	4.6 to 10	–
YEDEDYEDFFKPVTCYF (also: dimer via disulfide between the Cys of the two copies) [BK1.3 (17-mer synthetic dimeric peptide derived from Evasin P672)]	–	4.2
